Results taken from patent publication US12692533B2, “Methods and compositions for noninvasive detection of organ transplant rejection” (Georgia Tech Research Corporation, priority 2016, dated 2026).
Square brackets hold non-standard residues; d marks the D form. Ends that are not written are not given here.

What was measured:
[1] = target: T1, murine Granzyme B (Mus musculus, UniProt P04187); assay: In vitro protease cleavage assay with recombinant GzmB; type: biochemical; settings: substrate conjugated to IONPs, library of 13 candidate substrates
T1 construct: purchased Peprotech
T1 sequence (P04187 21-247): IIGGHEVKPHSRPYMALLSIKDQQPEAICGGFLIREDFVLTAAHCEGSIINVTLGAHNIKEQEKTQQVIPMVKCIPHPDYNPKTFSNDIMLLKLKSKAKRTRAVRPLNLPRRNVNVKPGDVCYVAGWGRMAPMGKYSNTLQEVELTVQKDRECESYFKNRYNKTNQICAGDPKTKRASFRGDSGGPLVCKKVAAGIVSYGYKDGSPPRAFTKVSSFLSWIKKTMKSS
Procedure: (§1) Synthetic biomarkers (6 nM by NP, 300 nM by peptide) were incubated in PBS+1% bovine serum albumin (BSA; Sigma) at 37° C. with murine Granzyme B (0.2 μM, Peprotech), human thrombin (HaemTech), mouse thrombin (HaemTech), mouse plasmin (HaemTech), Clr (Sigma), Cls (Sigma), Factor D (Sigma), Factor I (Sigma), MASP2 (Biomatik). Sample fluorescence were measured for 60 minutes using Cytation 5 plate reader (Biotek). To optimize GzmB substrate, a library of potential substrates was synthesized by Tufts University Core Facility peptide synthesis service and conjugated to IONPs. Cleavage assays of nanoparticles decorated with these substrates with recombinant GzmB were performed, and data was fitted to compare initial cleavage velocities. To determine Michaelis-Menten constants, cleavage assays with GzmB were performed at different substrate concentrations. To initiate coagulation cascade, citrated plasma was mixed with synthetic biomarkers before addition of calcium chloride (15 mM, Sigma). To initiate complement activation, Control Human Serum (Sigma) was mixed with synthetic biomarkers before addition of Heat Aggregated Gamma Globulin (HAGG; Quidel) per the manufacturer's protocol. After measuring fluorescence for 1 hour, supernatants were collected and measured for formation of MAC complex using Micro Vue CH50 Eq EIA Kit (Quidel).

[2] = system: OT1 T cells killing EG7-OVA target cells
Procedure: (§3) To sense transgenic T cell killing, CD8+OT1 T cells were isolated and activated per above protocol. On day 5 post activation, 1x10^6 OT1 T cells were coincubated with 1x10^6 EL4 or EG7-OVA target cells for 2 hours at 37° C. Coculture supernatants were mixed with synthetic biomarkers (2 nM by NP, 100 nM by peptides) and fluorescence were monitored for 1 hour at 37° C. To sense alloreactive T cell killing, on day 7 post-transplant, CD8 T cells were isolated from splenocytes and lymphocytes of skin graft mice. 5×10^5 CD8 T cells from skin graft mice were restimulated with 5×10^5 splenocytes from BALB/c Mice (Charles River) for 6 hours at 37° C. Coculture supernatants were mixed with synthetic biomarkers (2 nM by NP, 100 nM by peptides) and fluorescence were monitored for 2 hours at 37° C.

[3] = system: proteases in the coagulation and complement cascades; assay: Specificity: cleavage by key recombinant proteases and activated coagulation and complement cascades; type: biochemical; settings: recombinant proteases; plasma + Ca2+; serum + HAGG; fluorescence
Procedure: as §1

[4] = in plasma, DLS
Text: DLS measurements of synthetic biomarkers were done in PBS or mouse plasma at RT using Zetasizer Nano ZS (Malvern).

[5] = target: T2, GzmB (Mus musculus, UniProt P04187); assay: Tracking in vivo GzmB cleavage by near infra-red imaging in skin graft mice
T2 construct: cleaved by GzmB secreted by alloreactive T cells; endogenous in cells; host or cells: alloreactive CD8 T cells of C57BL/6 recipient mice bearing BALB/c skin grafts
T2 sequence (P04187 21-247): T1 sequence (P04187 21-247)
Procedure: (§2) To track cleaved fragments after in vivo GzmB cleavage, on day 7 post-transplant, VT750-labelled synthetic biomarkers (10 nmol by peptides) were administered to skin graft mice. Major organs were excised and imaged with Odyssey CLx Imaging System (LI-COR) while mouse bladders were imaged with IVIS Spectrum CT Imaging System (PerkinElmer) after 90 minutes. All urinalysis experiments were done in paired setup. 4 days before and 7 days after surgeries, skin graft mice were administered with FITC-labelled Synthetic biomarkers (10 nmol by peptides). Urine were collected after 90 minutes by placing mice over 96-well plates. FITC in urine was purified by a magnetic separation assay using Dynabeads (Thermo, 65501) coated with anti-FITC (GeneTex, GTX10257). Fluorescent signals were measured with Cytation 5 Plate Reader (Biotek). Concentrations of FITC were calculated using a free FITC ladder and normalized with urine volume. For CD8 depletion study, mice were given anti-mouse CD8 (clone: 53-6.7, BioXCell) for 3 consecutive days following with booster shots every 3 days after. Flow cytometry analysis of splenocytes and lymphocytes were performed with anti-mouse CD3 (clone: 17A2, Biolegend), anti-mouse CD4 (clone: RM4-5, Biolegend), anti-mouse CD8 (clone: KT15, Serotec) to confirm success of depletion.

[6] = system: T cells from skin graft mice with BALB/c donor splenocytes; assay: NP assay sensing alloreactive T cell killing (coculture supernatants); type: cell-based, mouse; settings: cocultures containing T cells from mice bearing allografts
Procedure: as §3

[7] = system: membrane attack complex (MAC); type: biochemical, Human
Procedure: as §1

[8] = target: T2, GzmB; assay: Urinary prediction of acute cellular rejection in skin graft mouse model; type: in vivo, mice
Procedure: as §2

[9] = in vivo

Substance	rate of cleavage by recombinant GzmB [1]	rate of cleavage by recombinant GzmB ([1]; listed as AIEFD|SGc)	sensing of cytotoxic signal (fluorescence) [2]	correlation of initial velocity of probe activation with secretory GzmB ([2]; coculture supernatant)	activation by proteases in the coagulation and complement cascades [3]	Z-average [4]	full body imaging bladder fluorescent signals ([5]; allograft vs isograft mice)	GzmB activity (fluorescent signal) in kidney, allograft mice with respect to isograft mice ([5]; day 7 post-transplant)	activation kinetics [6]	formation of membrane attack complex (MAC) [7]	ROC area under the curve (AUC) ([8]; accepting isografts vs rejecting allografts)	post-graft urine signals compared to pre-graft signals ([8]; allograft mice, day 7 vs day -4)	post-graft urine signals with respect to pre-graft signals ([8]; naïve mice, isograft mice, allograft mice depleted of CD8 T cells)	tolerability [9]
AIEFDSGc (AIEFDSG[dC])	high rate of cleavage	highest rate of cleavage	–	–	–	–	–	–	–	–	–	–	–	–
synthetic biomarkers: PEG-coated iron oxide nanoparticles conjugated with GzmB peptide substrates carrying a fluorescent reporter (AIEFDSG[dC]; not fully specified; printed as AIEFDSGc; also: conjugated to PEG-coated iron oxide nanoparticle via Cys thiol and SIA, FITC reporter, position not given here)	–	–	amplified cytotoxic signal	strongly correlated	not activated	47 nm	only detected fluorescent signals from the bladders of allograft mice	3 fold	Increased activation kinetics	not detected	0.969	more than 2 fold	did not detect significant elevation	well tolerated
